Experimental data reported in article PMC10268231 (Nature, 2021).

Tests used:
Assay in all cases: cryo-EM structure
PRIM1 = target: T1, PRIM1 (human, UniProt P49642 2-420)
T1 sequence: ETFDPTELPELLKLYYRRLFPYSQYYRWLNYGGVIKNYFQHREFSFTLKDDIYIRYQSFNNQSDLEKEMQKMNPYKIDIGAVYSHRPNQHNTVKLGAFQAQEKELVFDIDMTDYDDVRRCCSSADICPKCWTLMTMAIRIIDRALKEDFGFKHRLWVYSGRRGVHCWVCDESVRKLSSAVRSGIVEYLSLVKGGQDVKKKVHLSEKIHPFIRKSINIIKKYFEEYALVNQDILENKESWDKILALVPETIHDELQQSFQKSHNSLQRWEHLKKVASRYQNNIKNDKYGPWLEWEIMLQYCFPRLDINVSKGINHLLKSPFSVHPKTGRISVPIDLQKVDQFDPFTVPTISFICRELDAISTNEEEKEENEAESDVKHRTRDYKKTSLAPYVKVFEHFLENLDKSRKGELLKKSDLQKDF

STN1 = target: T2, STN1 (human, UniProt Q9H668 2-368)
T2 sequence: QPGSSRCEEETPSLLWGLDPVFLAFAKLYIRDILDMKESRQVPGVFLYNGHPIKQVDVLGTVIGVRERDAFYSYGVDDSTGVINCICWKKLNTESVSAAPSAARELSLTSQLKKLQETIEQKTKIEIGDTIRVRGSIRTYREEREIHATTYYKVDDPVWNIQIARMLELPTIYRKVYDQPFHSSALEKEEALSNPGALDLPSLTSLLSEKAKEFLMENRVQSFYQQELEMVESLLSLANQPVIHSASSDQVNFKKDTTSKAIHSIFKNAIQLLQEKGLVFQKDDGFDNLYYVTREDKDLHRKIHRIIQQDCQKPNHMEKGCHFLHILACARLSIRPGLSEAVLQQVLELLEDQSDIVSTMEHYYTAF

POLA2 = target: T3, POLA2 (human, UniProt Q14181-1 1-598)
T3 sequence (looked up): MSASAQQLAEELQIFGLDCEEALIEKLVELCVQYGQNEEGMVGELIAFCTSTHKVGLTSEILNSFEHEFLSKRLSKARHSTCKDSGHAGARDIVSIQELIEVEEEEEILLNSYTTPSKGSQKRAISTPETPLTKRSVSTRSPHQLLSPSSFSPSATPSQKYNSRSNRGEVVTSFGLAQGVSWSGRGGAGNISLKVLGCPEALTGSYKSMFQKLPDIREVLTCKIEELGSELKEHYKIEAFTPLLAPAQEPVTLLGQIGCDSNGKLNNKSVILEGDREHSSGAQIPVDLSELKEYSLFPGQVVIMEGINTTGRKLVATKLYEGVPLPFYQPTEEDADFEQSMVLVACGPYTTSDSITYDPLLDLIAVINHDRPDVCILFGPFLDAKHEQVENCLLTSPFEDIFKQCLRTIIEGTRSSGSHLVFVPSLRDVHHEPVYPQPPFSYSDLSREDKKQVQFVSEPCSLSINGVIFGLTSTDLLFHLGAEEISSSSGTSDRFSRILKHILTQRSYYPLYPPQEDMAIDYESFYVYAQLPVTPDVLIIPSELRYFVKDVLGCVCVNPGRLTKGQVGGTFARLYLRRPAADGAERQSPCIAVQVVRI

PRIM2 = target: T4, PRIM2 (human, UniProt P49643-1 1-509)
T4 sequence (looked up): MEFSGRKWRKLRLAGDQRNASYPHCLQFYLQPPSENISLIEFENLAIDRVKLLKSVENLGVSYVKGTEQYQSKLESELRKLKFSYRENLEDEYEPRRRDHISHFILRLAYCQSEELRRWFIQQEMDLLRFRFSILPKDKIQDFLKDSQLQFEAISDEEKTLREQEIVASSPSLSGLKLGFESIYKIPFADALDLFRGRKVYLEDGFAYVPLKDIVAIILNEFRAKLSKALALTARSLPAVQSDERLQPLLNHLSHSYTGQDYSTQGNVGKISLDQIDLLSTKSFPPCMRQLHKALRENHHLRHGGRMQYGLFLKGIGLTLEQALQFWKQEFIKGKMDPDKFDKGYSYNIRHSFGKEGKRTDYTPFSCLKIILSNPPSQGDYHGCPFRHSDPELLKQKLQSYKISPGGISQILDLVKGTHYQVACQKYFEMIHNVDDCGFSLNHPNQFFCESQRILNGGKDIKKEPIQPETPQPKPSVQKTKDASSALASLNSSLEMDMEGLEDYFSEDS

Measured: binding result

B1: TEN1 (natural protein, human)
chain: LPKPGTYYLPWEVSAGQVPDGSTLRTFGRLCLYDMIQSRVTLMAQHGSDQHQVLVCTKLVEPFHAQVGSLYIVLGELQHQQDRGSVVKARVLTCVEGMNLPLLEQAIREQRLYKQERGGSQ
binds: all assays above
